Measured values published in US20230340152A1 (published 2023).
Substitutions are numbered along the chain they refer to. In names and notes the source's numbering stands.

What was measured:
[1] = target: T1, Human CD73 on cells (MDA-MB-231, Jurkat CD73 knock-in, NCI-H322) (human, UniProt P21589 27-549); assay: flow cytometry, Jurkat (CD73 knock-in) / Jurkat
T1 construct: GPI-anchored native protein; also called native human CD73
T1 sequence: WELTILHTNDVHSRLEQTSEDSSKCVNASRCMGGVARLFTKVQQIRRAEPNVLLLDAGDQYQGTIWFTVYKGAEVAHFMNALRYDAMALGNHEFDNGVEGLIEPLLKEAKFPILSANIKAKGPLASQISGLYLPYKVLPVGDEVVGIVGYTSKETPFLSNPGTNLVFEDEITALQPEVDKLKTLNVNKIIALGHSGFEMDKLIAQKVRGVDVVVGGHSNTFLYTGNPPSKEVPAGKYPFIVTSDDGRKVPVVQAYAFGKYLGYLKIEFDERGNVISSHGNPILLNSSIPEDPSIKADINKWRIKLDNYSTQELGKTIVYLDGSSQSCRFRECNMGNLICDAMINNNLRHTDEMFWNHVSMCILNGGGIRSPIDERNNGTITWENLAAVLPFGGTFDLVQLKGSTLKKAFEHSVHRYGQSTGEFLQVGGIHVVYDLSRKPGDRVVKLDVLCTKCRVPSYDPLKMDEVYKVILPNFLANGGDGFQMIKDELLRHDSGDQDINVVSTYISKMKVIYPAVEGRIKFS

[2] = target: T2, Recombinant soluble wild-type human CD73 with C-terminal 6x-histidine tag (human, UniProt P21589 27-549); assay: SPR (ProteOn), CD73 immobilized on HTG chip
T2 construct: dimer in solution; also called sCD73; WT huCD73
T2 sequence: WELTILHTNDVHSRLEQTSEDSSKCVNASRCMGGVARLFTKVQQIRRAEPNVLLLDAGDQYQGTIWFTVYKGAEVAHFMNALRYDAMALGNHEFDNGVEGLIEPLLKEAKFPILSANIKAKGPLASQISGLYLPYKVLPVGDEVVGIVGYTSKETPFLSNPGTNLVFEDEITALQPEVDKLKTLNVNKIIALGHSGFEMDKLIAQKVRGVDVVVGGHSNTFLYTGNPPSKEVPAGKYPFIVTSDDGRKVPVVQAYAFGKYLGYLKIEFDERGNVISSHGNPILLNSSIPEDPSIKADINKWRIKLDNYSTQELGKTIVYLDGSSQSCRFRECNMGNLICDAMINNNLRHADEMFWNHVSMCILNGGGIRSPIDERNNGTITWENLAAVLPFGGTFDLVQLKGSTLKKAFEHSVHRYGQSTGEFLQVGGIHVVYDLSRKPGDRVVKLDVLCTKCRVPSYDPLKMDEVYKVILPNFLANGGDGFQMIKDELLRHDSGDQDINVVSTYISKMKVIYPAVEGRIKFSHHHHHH

[3] = target: T3, Murine CD73 on cells (4T1, Jurkat mCD73 knock-in) (murine, UniProt Q61503 29-551); assay: flow cytometry, Jurkat (mCD73 knock-in) / Jurkat
T3 construct: whole, on cells; also called 4T1 (murine)
T3 sequence (looked up): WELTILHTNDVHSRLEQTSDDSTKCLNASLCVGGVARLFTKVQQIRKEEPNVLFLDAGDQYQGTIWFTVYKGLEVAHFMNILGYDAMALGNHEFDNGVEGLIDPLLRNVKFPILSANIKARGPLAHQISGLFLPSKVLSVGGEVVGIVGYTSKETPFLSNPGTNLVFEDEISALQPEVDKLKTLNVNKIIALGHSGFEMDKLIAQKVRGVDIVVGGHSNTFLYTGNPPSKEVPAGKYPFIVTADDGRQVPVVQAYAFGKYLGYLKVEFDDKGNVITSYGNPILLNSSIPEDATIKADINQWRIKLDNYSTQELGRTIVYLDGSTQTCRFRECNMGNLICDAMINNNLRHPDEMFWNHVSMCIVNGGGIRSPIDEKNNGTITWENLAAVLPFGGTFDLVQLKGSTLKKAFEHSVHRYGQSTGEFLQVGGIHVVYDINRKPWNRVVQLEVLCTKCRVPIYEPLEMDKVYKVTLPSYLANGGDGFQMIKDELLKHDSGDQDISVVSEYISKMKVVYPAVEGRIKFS

[4] = target: T1, Human CD73 on cells (MDA-MB-231, Jurkat …); assay: cell-based or functional assay
[5] = target: T3, Murine CD73 on cells (4T1, Jurkat mCD73 …); assay: cell-based or functional assay
Cynomolgus CD73 ECD = target: T4, Cynomolgus CD73 ECD (cynomolgus, UniProt A0A2K5V5U7 27-549); assay: SPR (Proteon)
T4 construct: extracellular domain; also called cyno CD73
T4 sequence: T1 sequence with M199T, T350A, V466I

B1: MEDI9447 (antibody, human IgG1, lambda, V domains shown)
VH: EVQLLESGGGLVQPGGSLRLSCAASGFTFSSYAYSWVRQAPGKGLEWVSAISGSGGRTYYADSVKGRFTISRDNSKNTLYLQMNSLRAEDTAVYYCARLGYGRVDEWGRGTLVTVSS
VL: QSVLTQPPSASGTPGQRVTISCSGSLSNIGRNPVNWYQQLPGTAPKLLIYLDNLRLSGVPDRFSGSKSGTSASLAISGLQSEDEADYYCATWDDSHPGWTFGGGTKLTVLG
notes: Human IgG1-TM (L234F, L235E, P331S), lambda light chain; also called clone 10.3 antibody; 73combo3
With B1 as the binder, how does the “Mean Fluorescence Intensity Ratio (MFIR)” value [1] read?
The value was 7.9.

What about the koff [2] of the same binder?
Its koff is 1.94e-05 s⁻¹.

And the kon [2]?
The kon was 4.63e+06 M⁻¹ s⁻¹.

What about the “Mean Fluorescence Intensity Ratio (MFIR)” value [3] of the same binder?
The value was 57.1.

What about the “FabZAP internalization, EC50, MDA-MB-231” value [4] of the same binder?
Its value is 3.5 pM.

And the “FabZAP internalization, EC50, 4T1” value [5]?
The value was 18.5 pM.

What about the Kd (Cynomolgus CD73 ECD) of the same binder?
Its Kd is 7 pM.
